Assay results: patent US20230135471A1, “UBIQUITIN VARIANTS WITH IMPROVED AFFINITY FOR 53BP1” (Integrated DNA Technologies, Inc., priority 2021, published 2023)

Molecular target: 53BP1 fragment (a.a. 1221-1718) fused to an adenylate cyclase fragment (two-hybrid) (UniProt Q12888)
Assay: cell-based or functional assay

Substance	Experiment 1 Average Enrichment [log2]	Experiment 1 Rep 1 Enrichment [log2]	Experiment 1 Rep 2 Enrichment [log2]	Experiment 2 Average Enrichment [log2]	Experiment 2 Rep 1 Enrichment [log2]	Experiment 2 Rep 2 Enrichment [log2]	Percent GFP Positive Rep 1 [%]	Percent GFP Positive Rep 2 [%]	Percent GFP Positive Rep 3 [%]
i53 + K33E two-hybrid fusion (designed binder)	2.71	2.38	3.03	1.27	1.48	1.05	–	–	–
i53 + K33F two-hybrid fusion (designed binder)	1.77	1.91	1.62	1.02	1.16	0.87	–	–	–
i53 + K33I two-hybrid fusion (designed binder)	2.03	1.91	2.14	0.91	1.32	0.5	–	–	–
i53 + K33L two-hybrid fusion (designed binder)	2.53	2.4	2.65	1.6	1.67	1.53	–	–	–
i53 + K33M two-hybrid fusion (designed binder)	2.34	2.3	2.37	1.06	1.51	0.61	–	–	–
i53 + K33N two-hybrid fusion (designed binder)	0.29	0.48	0.1	0.24	0.06	0.41	–	–	–
i53 + K33Q two-hybrid fusion (designed binder)	2.9	3.03	2.77	1.48	1.96	0.99	–	–	–
i53 + K33R two-hybrid fusion (designed binder)	0.42	0.73	0.1	0.37	0.64	0.1	–	–	–
i53 + K33T two-hybrid fusion (designed binder)	1.77	1.9	1.63	1.41	1.48	1.34	–	–	–
i53 + K33V two-hybrid fusion (designed binder)	2.45	2.71	2.19	1.75	2.03	1.46	–	–	–
i53 + K33W two-hybrid fusion (designed binder)	-1.01	-2.04	0.01	0.15	0.35	-0.06	–	–	–
i53 + K33Y two-hybrid fusion (designed binder)	1.02	0.63	1.41	0.98	1.03	0.94	–	–	–
i53 + K48I two-hybrid fusion (designed binder)	0.64	0.5	0.77	0.42	0.35	0.49	–	–	–
i53 + K48L two-hybrid fusion (designed binder)	0.05	0.05	0.04	0.2	0.28	0.12	–	–	–
i53 + K48M two-hybrid fusion (designed binder)	0.91	0.87	0.94	0.67	0.63	0.7	–	–	–
i53 + K48N two-hybrid fusion (designed binder)	-0.04	-0.15	0.08	0.06	0.09	0.03	–	–	–
i53 + K48Q two-hybrid fusion (designed binder)	0.55	0.59	0.51	0.34	0.2	0.47	–	–	–
i53 + K48R two-hybrid fusion (designed binder)	0.35	0.39	0.32	0.14	0.09	0.19	–	–	–
i53 + K48V two-hybrid fusion (designed binder)	0.54	0.59	0.48	0.34	0.23	0.46	–	–	–
i53 + K63F two-hybrid fusion (designed binder)	-0.02	-0.01	-0.02	0.08	-0.06	0.22	–	–	–
i53 + K63M two-hybrid fusion (designed binder)	-0.07	-0.24	0.09	0.2	0.18	0.22	–	–	–
i53 + K63V two-hybrid fusion (designed binder)	-0.13	-0.15	-0.11	0.01	0	0.02	–	–	–
i53 + K66R two-hybrid fusion (designed binder)	-0.69	-0.84	-0.54	0.55	0.13	0.97	–	–	–
i53 + L67C two-hybrid fusion (designed binder)	0.04	-0.31	0.39	0.73	0.96	0.5	–	–	–
i53 + L67K two-hybrid fusion (designed binder)	2.01	2.08	1.93	0.89	1.4	0.39	24.2	11.2	21.5
i53 + L67M two-hybrid fusion (designed binder)	1.03	0.98	1.07	0.77	0.65	0.88	–	–	–
